Literature values as cited in article PMC11283454 (Nature Communications, 2024).

B1: scATE1: Saccharomyces cerevisiae ATE1 (protein, UniProt P16639 1-503, looked up)
Arginyl-tRNA--protein …: MSDRFVIWAPSMHNEPAAKCGYCHGNKGGNMDQLFALDSWAHRYMNKMDVVKIENCTIGSFVEHMDVATYDRMCNMGFRRSGKFLYKVDPLRNCCRLYTIRTAPQELNMTKELKKCISRFATRITSEDYCPAAVASSDFVGKIVNAEMNSKTFYTRFEPALYSEEKYHLFVKYQEKVHQDYNNSPKSFKRFLCDTPFGPEAVLGTQESWEQLNNWQRMKPGEKLKHMGPVHECYYYEGKLIAITVSDILPSGISSVYFIWDPDYSKWSLGKLSALRDLAIIQRTNLQYYYLGYYIEDCPKMNYKANYGAEVLDVCHSKYIPLKPIQDMISRGKLFVIGEEETKVTKELYLVDSETGRGEGFPTDNVVKYKNIAEEIYGVGGCAFKSANESALELKELYGIPYEEEDLDTIYHLKEHNGHAPNGIPNVVPGLLPLWELLDIMQSGKITDLEGRLFLFEIETEGIRPLINFYSEPPNVKKRICDVIRLFGFETCMKAVILYSEQM
For B1, the “Tm of scATE1” value is listed as ~ 46 °C.
